Experimental findings from patent US20140073518A1 (Stanford University, published 2014) are described below.

Where a chain is given by its changes, count along the chain named. In names and notes the source's numbering stands.

The target in assay [1] is T1, soluble Alexa-488 labeled human Met-Fc (human, UniProt P08581 25-932, limits assumed, Alexa-488 label).
T1 construct: not shown: Fc part
The assay can be described thus: dual receptor direct binding assay, flow cytometry; 220 nM Met-Fc, 2 or 20 nM protein. (A flow cytometer gives signals particle by particle.)

For assay [2], the target named is T2, αvβ3 integrin on K562-αvβ3 cells (K562 leukemia cells transfected with αvβ3 integrin) (UniProt P06756 31-1048; P05106 27-788).
T2 construct: whole, on cells; also called cell-surface αvβ3 integrin
T2 sequence (P06756 31-1048, chain 1 of 2): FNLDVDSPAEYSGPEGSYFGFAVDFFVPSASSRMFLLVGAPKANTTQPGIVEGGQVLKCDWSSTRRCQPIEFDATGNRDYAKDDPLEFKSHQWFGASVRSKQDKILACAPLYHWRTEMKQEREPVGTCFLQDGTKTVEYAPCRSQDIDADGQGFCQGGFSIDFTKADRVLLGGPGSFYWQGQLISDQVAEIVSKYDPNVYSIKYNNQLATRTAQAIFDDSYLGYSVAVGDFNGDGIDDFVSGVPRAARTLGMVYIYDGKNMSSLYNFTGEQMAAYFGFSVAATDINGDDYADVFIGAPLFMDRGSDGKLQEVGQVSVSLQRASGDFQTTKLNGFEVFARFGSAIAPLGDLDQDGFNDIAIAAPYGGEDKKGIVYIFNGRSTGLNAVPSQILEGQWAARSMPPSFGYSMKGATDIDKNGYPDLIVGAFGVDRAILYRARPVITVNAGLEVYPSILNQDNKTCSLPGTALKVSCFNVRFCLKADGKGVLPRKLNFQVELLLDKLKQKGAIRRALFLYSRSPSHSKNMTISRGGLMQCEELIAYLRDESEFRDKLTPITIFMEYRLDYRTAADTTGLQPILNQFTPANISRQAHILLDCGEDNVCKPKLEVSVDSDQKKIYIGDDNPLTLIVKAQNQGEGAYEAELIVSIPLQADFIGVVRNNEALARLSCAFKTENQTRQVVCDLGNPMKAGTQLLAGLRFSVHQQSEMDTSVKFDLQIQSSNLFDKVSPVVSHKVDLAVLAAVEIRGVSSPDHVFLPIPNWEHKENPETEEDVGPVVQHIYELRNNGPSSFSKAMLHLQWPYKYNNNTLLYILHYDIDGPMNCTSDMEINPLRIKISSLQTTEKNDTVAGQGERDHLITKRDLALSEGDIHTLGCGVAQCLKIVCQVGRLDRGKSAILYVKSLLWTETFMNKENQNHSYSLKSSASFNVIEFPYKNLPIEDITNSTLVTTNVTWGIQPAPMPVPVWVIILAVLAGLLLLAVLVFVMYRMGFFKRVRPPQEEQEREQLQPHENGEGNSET
T2 sequence (P05106 27-788, chain 2 of 2): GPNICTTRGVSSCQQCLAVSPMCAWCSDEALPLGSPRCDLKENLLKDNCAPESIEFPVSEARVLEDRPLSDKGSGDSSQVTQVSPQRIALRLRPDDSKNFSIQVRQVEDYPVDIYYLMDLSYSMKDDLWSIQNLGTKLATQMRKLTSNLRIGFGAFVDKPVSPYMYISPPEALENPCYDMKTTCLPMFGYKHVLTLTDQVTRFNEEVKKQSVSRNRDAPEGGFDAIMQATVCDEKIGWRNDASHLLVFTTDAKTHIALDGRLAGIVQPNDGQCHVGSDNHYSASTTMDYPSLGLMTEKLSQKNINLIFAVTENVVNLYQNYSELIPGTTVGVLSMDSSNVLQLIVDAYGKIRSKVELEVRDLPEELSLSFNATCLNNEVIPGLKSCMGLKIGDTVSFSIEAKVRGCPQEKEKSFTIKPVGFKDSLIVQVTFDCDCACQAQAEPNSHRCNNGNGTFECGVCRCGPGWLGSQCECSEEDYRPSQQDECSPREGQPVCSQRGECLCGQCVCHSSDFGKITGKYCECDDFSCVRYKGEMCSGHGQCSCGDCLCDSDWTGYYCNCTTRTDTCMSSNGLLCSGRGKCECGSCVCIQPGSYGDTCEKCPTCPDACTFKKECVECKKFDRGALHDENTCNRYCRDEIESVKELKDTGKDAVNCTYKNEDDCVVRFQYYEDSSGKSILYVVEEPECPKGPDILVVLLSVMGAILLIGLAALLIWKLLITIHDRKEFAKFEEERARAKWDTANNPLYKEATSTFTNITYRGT
The assay can be described thus: binding titration of the soluble fusion protein on K562-αvβ3 cells, flow cytometry; the cells express αvβ3 integrin and also Met receptor.

Assay [3] addresses T2, αvβ3 integrin on K562-αvβ3 cells (K562 …). As to the kind of experiment: K562-αvβ3 cell binding assay.
In assay [4] the target is T3, Gas6 (growth arrest-specific 6), soluble, hexahistidine-tagged (UniProt Q14393 49-678, limits assumed).
T3 construct: also called Gas6 ligand; soluble Gas6
T3 sequence (looked up): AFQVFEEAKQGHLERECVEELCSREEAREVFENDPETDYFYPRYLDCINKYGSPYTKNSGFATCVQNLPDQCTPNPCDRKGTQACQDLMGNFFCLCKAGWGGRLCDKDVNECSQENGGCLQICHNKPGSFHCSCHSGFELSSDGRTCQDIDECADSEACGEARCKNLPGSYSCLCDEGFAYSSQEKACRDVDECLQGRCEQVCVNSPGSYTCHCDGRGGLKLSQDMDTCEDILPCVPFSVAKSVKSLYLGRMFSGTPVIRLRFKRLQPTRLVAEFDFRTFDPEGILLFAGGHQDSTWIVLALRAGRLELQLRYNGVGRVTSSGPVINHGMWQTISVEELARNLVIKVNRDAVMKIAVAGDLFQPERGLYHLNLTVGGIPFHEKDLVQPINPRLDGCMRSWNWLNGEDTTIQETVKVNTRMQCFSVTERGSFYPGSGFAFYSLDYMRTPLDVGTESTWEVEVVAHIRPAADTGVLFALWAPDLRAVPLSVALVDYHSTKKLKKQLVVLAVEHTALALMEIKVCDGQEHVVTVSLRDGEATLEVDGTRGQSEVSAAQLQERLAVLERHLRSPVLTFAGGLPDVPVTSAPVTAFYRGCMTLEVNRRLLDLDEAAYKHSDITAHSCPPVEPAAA
The assay can be described thus: yeast surface display, soluble Gas6.

For assay [5], the target named is T3, Gas6 (growth arrest-specific 6), …. As to the kind of experiment: yeast surface display, flow cytometry.
The target in assay [6] is T4, soluble αvβ3 integrin (UniProt P06756 31-992; P05106 27-718).
T4 construct: also called alpha v beta 3 integrin
T4 sequence (P06756 31-992, chain 1 of 2): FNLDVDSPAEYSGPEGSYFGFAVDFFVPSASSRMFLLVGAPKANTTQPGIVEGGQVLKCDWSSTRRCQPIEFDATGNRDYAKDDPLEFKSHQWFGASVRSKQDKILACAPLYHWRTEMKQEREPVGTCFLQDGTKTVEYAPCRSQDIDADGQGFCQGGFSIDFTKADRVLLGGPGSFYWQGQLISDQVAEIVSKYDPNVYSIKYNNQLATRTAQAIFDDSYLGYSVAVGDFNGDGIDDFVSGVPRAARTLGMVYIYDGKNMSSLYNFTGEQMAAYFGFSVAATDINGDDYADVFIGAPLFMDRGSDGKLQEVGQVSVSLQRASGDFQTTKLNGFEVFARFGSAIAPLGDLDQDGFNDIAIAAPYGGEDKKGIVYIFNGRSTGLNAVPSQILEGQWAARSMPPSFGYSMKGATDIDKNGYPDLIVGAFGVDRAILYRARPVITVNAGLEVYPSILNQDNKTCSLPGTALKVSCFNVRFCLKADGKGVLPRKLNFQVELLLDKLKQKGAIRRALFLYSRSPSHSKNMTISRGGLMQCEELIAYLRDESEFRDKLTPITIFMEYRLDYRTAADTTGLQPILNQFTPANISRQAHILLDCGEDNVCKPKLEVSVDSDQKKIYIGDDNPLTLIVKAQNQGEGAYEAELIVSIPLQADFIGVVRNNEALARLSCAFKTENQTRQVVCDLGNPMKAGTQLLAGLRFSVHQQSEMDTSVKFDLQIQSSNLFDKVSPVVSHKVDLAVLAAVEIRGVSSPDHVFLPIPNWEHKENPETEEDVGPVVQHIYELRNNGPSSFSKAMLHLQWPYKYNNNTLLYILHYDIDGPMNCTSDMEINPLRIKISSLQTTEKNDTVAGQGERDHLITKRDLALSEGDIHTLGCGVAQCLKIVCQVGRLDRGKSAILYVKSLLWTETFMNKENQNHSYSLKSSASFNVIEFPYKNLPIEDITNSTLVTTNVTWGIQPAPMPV
T4 sequence (P05106 27-718, chain 2 of 2): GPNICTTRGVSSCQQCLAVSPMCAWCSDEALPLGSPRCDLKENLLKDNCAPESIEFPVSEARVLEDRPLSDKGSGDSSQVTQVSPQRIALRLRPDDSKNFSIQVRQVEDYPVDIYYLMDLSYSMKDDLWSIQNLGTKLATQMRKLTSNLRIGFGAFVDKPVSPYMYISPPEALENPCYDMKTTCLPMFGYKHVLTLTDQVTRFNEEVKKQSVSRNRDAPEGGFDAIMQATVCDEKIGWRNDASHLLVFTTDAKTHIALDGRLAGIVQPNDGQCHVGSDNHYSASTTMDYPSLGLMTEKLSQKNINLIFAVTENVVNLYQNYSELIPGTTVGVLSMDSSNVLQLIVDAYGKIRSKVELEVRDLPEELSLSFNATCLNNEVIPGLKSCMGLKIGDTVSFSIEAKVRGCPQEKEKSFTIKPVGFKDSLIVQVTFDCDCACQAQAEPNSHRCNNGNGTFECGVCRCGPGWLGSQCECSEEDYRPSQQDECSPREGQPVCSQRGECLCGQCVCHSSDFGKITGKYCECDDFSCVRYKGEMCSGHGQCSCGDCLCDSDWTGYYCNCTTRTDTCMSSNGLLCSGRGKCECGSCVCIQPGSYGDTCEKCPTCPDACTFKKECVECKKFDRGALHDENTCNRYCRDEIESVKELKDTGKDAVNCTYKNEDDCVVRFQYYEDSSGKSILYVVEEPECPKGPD
The assay can be described thus: yeast surface display, flow cytometry.

Assay [7] deals with T2, αvβ3 integrin on K562-αvβ3 cells (K562 …). As to the kind of experiment: binding to cells that express αvβ3 integrin.
Assay [8] has the same target. The assay can be described thus: flow cytometry on K562-αvβ3 cells, anti-FLAG detection.

T1 sequence (P08581 25-932 limits assumed): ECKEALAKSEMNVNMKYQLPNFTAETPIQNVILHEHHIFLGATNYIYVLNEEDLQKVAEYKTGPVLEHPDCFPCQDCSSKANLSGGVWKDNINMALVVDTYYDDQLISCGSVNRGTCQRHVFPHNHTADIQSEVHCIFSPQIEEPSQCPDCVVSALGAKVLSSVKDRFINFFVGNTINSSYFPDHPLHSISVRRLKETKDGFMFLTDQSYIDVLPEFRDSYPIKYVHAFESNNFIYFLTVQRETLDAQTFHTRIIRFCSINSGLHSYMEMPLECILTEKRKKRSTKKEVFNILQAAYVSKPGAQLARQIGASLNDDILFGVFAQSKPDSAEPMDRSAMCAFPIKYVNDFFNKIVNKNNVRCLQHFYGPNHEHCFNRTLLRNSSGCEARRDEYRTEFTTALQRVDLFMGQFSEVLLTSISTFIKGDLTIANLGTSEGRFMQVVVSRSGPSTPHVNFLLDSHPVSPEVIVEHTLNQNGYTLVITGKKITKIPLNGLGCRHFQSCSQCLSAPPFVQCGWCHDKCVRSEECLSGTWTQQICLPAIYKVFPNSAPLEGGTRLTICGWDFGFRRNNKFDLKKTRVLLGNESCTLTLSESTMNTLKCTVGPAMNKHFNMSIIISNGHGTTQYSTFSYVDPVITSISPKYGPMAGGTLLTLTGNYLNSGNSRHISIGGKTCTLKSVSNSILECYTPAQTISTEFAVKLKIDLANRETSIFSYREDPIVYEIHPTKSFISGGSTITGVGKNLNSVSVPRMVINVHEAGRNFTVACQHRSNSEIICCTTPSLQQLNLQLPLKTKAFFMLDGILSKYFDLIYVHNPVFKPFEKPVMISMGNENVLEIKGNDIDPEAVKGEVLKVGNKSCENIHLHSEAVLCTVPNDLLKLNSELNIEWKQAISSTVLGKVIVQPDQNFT

B1: AgRp7A-M2.2 fusion protein (designed binder)
chain: DYKDDDDKPRGCVRLHESCLGQQVPCCDPAATCYCSGRGDNDLVCYCRYAEGQRKRRNTIHEFKKSAKTTLIKIDPALKIKTEKVNTADQCANRCTRNKGLPFTCKAFVFDKARKRCLWFPFNSMSSGVKKEFGHEFDLYENKDYIRDCIIGNGRSYRGTVSITKSGIKCQPWSSMIPHEHSFLPSSYRGEDLRENYCRNPRGEEGGPWCFTSDPEVRYEVCDIPQCSEVETRHHHHHH
For the molecule B1, the binding result in assay [1] is given as “binds”.

B2: AgRP7A-Aras4 fusion protein (soluble, FLAG and His tagged) (designed binder)
chain: B1 chain with R54G, K79R, V85A, N98S, D144A, N153R, S156N, S175A, F211Y
notes: Produced in Pichia pastoris
As to B2, the EC50 (read off the curve) (in general, the concentration that produces a half-maximal response) in assay [2] was about 1 nM.

B3: AgRp7A-M2.2(D127A) fusion protein (designed binder)
chain: B1 chain with D148A
For the molecule B3, in assay [1], the binding result is “binds”. The Kd (as a rule, the concentration at which binding is half-saturated) in assay [3] came out at 2.1 nM.

Turning to GCSWSTLARCKQDSDCLAGCVCMLEPGMRSCGS (designed binder, also called EETI-II mutants alone) [EETI-II mutant of EA 8.04 alone (expressed without Axl)], the binding result in assay [4] is listed as “no binding”.

As to GCPQGRGDWAPTSCKQDSDCRAGCVCGPNGFCG (designed binder, also called EETI 2.5D) [EETI-II mutant 2.5D (yeast-displayed)], in assay [5], the binding result is recorded as “no binding (tested: 0.2, 2 or 20 nM Gas6)”.

Consider GCLGGVALAHCKQDSDCLAGCVCHILPELCGS (designed binder, also called EETI-II mutants alone) [EETI-II mutant of EA 7.06 alone (expressed without Axl)], for which the binding result in assay [4] is on record as “no binding”.

B4: wild-type Axl Ig1 (yeast-displayed) (receptor)
chain: APRGTQAEESPFVGNPGNITGARGLTGTLRCQLQVQGEPPEVHWLRDGQILELADSTQTQVPLGEDEQDDWIVVSQLRITSLQLSDTGQYQCLVFLGHQTFVSQPGYVGLEGLP
notes: T0017 footnote says amino acids 19-132; also called Wt Axl; wt Axl Ig1
In the case of B4, in assay [6], the binding result is “no binding (tested: 20, 50 or 100 nM αvβ3 integrin)”.

Take GCALMTPSAVDCKQDSDCLAGCVCLPGMVRCGS (designed binder, also called EETI-II mutants alone) [EETI-II mutant of EA 7.01 alone (expressed without Axl)]: in assay [4], the binding result is “no binding”.

B5: EETI2.5F-M2.2(D127A) fusion protein (designed binder)
chain: DYKDDDDKPRGCPRPRGDNPPLTCSQDSDCLAGCVCGPNGFCGYAEGQRKRRNTIHEFKKSAKTTLIKIDPALKIKTEKVNTADQCANRCTRNKGLPFTCKAFVFDKARKRCLWFPFNSMSSGVKKEFGHEFDLYENKDYIRACIIGNGRSYRGTVSITKSGIKCQPWSSMIPHEHSFLPSSYRGEDLRENYCRNPRGEEGGPWCFTSDPEVRYEVCDIPQCSEVETRHHHHHH
As for B5, in assay [1], the binding result is given as “binds”. The same molecule gave a Kd in assay [3] of 4.6 nM.

B6: EETI2.5F-M2.2 fusion protein (designed binder)
chain: B5 chain with A143D
As for B6, in assay [1], the binding result is given as “binds”.

B7: EETI 2.5D-Axl fusion protein (soluble, produced in P. pastoris) (designed binder)
chain: GCPQGRGDWAPTSCSQDSDCLAGCVCGPNGFCGSRGTQAEESPFVGNPGNITGARGLTGTLRCQLQVQGEPPEVHWLRDGQILELADSTQTQVPLGEDEQDDWIVVSQLRITSLQLSDTGQYQCLVFLGHQTFVSQPGYVGLEGLP
notes: Treated with endoH; monomeric; also called 2.5D - Axl Ig1; recombinantly produced EETI 2.5D-Axl
In the case of B7, the Kd in assay [7] was about 2 nM; in assay [8], 1.72 nM.
